This note sets out measurements from publication doi:10.1101/2023.01.03.522599, “Crystal structure of a mammalian CMTM6 and its interaction model with PD-L1” (bioRxiv, 2023).

In this test the target is T1, human PD-L1, BRIL fused to the C-terminus, C-terminally His-tagged (human, UniProt Q9NZQ7 19-290).
T1 construct: PD-L1, human; probably ED, TMD and CD together; also called hPD-L1; source: purified; not shown: BRIL, C-terminal, kept; His-tag, C-terminal, kept
Briefly: pull-down; purified C-terminally His-tagged hPD-L1 variants (BRIL fused) used to pull down purified His-tag free bCMTM6 variants (BRIL fused); examined by SDS-PAGE. The note with it: both partners purified.

T1 sequence (Q9NZQ7 19-290): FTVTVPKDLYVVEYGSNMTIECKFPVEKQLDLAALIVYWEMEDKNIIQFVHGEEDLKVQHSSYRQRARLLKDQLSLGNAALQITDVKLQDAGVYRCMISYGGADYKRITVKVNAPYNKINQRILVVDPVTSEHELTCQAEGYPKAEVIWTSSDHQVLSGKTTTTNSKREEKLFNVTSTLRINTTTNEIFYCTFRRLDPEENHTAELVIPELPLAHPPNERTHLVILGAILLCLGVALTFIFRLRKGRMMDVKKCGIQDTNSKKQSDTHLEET

B1: bovine CMTM6 protein (CKLF-like MARVEL transmembrane domain-containing protein 6), BRIL fused to the C-terminus (natural protein, UniProt Q3ZBE8 1-182, looked up)
chain: MENGQVYRATTEAHPGPGIGPRSGLAAYFTLSRLTGFRRLKLLELVLSLLAFICEEVVSQCTLCGGLYFFEFVSCSAFLLSLLILVVYCTPVYDRVDPAKVKSSDFFITLGTGLVFFVASLTFTLTHDNTIAEIAAIVFGMLASLTYLAEFSFMLREKLKEPRPRKGEATMRREHLTEPLNA
notes: CMTM6, bovine; the crystal structure holds residues 33-165, and 32 amino-terminal and 17 carboxy-terminal residues were not modeled; Whether BRIL was on the crystallized sample is not clear from 'bCMTM6(-BRIL)'; also called bCMTM6; bCMTM6(-BRIL); source: purified (size-exclusion column); not shown: BRIL, C-terminal, kept
Regarding B1, the binding result is “binds”.
